Source: the supplement of paper PMC10065799, “High-throughput profiling of sequence recognition by tyrosine kinases and SH2 domains using bacterial peptide display” (eLife, 2023)

What was measured:
Grb2 SH2 = Grb2 SH2 (UniProt P62993); test: SH2 binding enrichment of the phosphorylated peptide, bacterial display (enrichment ratio); higher = better substrate or ligand; peptides without Tyr show the background
c-Src SH2 = test: as above
SHP2-C SH2 = test: as above
Hck = Hck (UniProt P08631); test: phosphorylation enrichment, bacterial display (enrichment ratio); higher = better substrate or ligand; peptides without Tyr show the background
EPHB2 = EPHB2 (UniProt P29323); test: as above
Sequence of EPHB2 (P29323 whole entry, looked up): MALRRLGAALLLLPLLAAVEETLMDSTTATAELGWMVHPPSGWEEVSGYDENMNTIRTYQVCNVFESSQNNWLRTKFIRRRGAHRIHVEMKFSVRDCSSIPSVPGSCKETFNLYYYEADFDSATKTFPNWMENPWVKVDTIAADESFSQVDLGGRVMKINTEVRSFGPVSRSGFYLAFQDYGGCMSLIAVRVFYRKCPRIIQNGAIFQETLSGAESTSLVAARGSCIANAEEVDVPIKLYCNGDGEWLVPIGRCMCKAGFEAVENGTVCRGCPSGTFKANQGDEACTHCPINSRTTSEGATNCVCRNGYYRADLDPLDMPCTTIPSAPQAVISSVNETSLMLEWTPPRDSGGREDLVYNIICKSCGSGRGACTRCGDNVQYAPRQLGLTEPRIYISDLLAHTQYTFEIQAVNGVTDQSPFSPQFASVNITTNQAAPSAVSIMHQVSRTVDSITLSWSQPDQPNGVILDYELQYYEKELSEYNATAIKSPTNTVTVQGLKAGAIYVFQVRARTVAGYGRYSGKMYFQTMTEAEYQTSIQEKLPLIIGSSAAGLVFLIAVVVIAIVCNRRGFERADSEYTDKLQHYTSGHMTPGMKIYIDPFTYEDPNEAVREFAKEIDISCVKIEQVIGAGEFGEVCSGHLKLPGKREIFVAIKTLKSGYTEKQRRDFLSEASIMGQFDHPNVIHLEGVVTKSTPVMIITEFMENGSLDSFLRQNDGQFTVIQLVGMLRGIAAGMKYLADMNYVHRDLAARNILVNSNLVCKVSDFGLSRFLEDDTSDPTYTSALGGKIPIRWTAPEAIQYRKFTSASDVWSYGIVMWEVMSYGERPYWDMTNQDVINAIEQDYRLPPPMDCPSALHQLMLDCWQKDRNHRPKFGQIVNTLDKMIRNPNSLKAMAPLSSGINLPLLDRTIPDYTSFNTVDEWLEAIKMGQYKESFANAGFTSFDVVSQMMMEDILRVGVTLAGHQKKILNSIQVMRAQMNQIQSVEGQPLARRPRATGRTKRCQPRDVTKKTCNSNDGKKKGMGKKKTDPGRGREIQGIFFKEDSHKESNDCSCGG

Jak2 = Jak2 (UniProt O60674); test: as above
Sequence of Jak2 (O60674 whole entry, looked up): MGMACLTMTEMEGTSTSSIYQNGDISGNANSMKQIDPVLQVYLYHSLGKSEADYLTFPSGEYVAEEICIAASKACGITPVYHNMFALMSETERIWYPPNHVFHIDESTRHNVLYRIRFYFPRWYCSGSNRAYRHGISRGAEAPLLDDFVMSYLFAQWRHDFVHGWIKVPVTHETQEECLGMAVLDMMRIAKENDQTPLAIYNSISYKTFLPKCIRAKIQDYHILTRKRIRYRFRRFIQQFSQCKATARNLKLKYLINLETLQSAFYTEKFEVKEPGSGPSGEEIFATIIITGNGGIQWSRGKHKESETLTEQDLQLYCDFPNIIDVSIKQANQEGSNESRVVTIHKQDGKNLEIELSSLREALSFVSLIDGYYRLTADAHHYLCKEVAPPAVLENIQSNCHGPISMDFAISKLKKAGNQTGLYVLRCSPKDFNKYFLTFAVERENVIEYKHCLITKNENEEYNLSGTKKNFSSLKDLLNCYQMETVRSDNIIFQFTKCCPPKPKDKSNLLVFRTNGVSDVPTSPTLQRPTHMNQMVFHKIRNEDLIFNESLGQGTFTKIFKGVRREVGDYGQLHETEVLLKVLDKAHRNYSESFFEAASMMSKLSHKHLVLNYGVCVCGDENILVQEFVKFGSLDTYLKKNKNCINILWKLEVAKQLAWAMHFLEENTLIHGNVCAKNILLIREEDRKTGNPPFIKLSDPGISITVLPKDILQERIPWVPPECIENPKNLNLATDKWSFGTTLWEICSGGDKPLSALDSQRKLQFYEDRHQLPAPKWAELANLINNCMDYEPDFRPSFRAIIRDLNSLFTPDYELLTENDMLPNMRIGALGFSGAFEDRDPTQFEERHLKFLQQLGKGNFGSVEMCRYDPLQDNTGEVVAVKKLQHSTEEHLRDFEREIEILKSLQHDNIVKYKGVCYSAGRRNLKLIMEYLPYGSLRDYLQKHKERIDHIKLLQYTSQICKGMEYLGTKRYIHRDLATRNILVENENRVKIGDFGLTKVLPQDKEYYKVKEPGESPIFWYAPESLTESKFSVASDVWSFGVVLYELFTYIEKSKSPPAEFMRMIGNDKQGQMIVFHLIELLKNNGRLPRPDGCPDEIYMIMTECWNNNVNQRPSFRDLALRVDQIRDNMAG

Fer (mouse) = test: as above
FGFR3 = FGFR3 (UniProt P22607); test: as above
AncSZ = test: as above
FGFR1 = FGFR1 (UniProt P11362); test: as above
c-Src = test: as above
MERTK = MERTK (UniProt Q12866); test: as above
Sequence of MERTK (Q12866 whole entry, looked up): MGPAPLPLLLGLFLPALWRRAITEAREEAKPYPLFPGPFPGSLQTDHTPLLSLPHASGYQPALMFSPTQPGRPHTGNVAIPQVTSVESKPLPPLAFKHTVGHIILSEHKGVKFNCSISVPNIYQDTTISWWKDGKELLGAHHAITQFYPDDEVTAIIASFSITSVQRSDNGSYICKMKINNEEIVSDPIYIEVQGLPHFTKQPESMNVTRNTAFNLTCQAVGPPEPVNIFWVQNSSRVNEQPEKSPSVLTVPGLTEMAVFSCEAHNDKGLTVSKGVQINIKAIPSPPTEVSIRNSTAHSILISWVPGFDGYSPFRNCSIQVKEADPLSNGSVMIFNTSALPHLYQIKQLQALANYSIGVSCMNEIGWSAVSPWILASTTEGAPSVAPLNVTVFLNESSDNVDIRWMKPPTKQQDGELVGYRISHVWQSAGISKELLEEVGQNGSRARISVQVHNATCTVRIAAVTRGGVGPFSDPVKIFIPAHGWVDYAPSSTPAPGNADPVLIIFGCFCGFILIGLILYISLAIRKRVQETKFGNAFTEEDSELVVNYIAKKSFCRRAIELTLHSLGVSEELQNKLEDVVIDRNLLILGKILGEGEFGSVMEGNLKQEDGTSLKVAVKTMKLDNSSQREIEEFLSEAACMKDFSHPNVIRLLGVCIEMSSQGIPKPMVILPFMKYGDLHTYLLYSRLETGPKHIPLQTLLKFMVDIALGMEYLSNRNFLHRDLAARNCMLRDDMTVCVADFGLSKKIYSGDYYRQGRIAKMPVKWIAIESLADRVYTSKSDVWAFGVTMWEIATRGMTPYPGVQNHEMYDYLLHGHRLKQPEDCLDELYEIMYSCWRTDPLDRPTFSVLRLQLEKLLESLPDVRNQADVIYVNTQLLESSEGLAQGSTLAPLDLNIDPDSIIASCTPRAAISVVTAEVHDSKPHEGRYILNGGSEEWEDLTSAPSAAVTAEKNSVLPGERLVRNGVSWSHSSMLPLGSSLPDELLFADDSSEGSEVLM

EPHB1 = EPHB1 (UniProt P54762); test: as above
Sequence of EPHB1 (P54762 whole entry, looked up): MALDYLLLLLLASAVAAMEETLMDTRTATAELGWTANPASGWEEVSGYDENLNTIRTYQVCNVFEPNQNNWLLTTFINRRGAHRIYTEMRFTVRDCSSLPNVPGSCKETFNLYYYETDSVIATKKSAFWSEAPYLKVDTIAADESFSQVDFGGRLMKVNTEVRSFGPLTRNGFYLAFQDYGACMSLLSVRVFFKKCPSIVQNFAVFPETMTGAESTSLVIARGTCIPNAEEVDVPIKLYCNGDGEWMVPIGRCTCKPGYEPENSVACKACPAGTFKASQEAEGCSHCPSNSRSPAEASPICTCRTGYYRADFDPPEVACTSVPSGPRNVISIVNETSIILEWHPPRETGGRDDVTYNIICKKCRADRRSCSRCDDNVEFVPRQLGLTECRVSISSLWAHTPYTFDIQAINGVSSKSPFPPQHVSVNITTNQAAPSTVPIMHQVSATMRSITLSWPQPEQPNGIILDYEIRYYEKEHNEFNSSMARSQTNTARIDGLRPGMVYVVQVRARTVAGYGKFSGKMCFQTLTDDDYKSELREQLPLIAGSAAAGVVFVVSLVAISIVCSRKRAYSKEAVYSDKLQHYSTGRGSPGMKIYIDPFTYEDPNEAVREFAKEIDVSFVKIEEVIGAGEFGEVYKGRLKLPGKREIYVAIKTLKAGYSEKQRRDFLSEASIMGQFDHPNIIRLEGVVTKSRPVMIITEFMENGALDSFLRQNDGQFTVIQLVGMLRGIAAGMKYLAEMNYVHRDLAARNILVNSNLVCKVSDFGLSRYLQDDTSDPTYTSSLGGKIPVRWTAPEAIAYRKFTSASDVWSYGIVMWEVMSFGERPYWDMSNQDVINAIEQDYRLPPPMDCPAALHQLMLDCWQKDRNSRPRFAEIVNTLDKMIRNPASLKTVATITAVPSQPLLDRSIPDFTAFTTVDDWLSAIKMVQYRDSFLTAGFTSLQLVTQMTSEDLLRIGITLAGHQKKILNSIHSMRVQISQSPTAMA

Fyn = Fyn (UniProt P06241); test: as above
Fes = Fes (UniProt P07332); test: as above
Sequence of Fes (P07332 whole entry, looked up): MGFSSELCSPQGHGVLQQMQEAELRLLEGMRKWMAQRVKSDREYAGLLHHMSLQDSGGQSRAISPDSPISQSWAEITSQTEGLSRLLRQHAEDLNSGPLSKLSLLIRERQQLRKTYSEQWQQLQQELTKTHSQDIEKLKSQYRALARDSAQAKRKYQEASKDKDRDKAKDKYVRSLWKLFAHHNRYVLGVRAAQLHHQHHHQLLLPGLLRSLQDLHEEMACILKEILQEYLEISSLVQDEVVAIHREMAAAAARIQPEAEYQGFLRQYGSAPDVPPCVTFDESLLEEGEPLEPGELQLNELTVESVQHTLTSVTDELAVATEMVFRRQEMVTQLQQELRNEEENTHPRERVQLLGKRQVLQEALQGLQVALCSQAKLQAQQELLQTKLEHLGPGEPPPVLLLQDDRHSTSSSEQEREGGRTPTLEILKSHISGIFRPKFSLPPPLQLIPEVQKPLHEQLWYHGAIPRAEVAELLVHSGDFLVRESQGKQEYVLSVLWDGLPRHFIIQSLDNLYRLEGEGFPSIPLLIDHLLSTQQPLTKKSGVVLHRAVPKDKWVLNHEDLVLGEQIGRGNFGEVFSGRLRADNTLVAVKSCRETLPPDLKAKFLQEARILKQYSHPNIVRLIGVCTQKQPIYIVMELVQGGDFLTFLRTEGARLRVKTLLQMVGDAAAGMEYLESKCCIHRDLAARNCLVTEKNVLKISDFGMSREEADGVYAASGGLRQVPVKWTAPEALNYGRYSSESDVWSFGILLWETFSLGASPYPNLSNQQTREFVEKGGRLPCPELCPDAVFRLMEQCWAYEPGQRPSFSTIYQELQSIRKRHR

c-Abl (mouse) = test: as above
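For SH2 binding enrichment of the phosphorylated peptide, bacterial display in this document: peptide library displayed on the E. coli surface as eCPX fusions, selected cells deep-sequenced, score is each peptide's frequency after selection divided by its frequency in the input.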
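For phosphorylation enrichment, bacterial display in this document: 11-residue human phosphosite peptides and single-mutation variants displayed on the E. coli surface, counted by deep sequencing, each peptide's frequency after selection divided by its frequency in the unselected input library; frequency after pTyr selection over input frequency; kinase dosed for 20-30% of maximal phosphorylation in three min.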

Row | SH2 binding enrichment (Grb2 SH2) | SH2 binding enrichment (c-Src SH2) | SH2 binding enrichment (SHP2-C SH2) | Sequence | phosphorylation enrichment (Hck) | phosphorylation enrichment (EPHB2) | phosphorylation enrichment (Jak2) | phosphorylation enrichment (Fer (mouse)) | phosphorylation enrichment (FGFR3) | phosphorylation enrichment (AncSZ) | phosphorylation enrichment (FGFR1) | phosphorylation enrichment (c-Src) | phosphorylation enrichment (MERTK) | phosphorylation enrichment (EPHB1) | phosphorylation enrichment (Fyn) | phosphorylation enrichment (Fes) | phosphorylation enrichment (c-Abl (mouse))
1 | 0.845 | 0.691 | 0.71 | EHTILYSNNST [KANSL1_Y223_T221I] | 0.43 | 0.454 | 0.488 | 0.732 | 0.468 | 0.715 | 0.461 | 0.547 | 0.5 | 0.456 | 0.437 | 0.662 | 0.581
2 | 0.94 | 0.502 | 0.653 | EKAEVYRSENE [RIOK2_Y348_G349R] | 0.499 | 0.738 | 0.863 | 0.466 | 0.724 | 1.09 | 0.507 | 0.509 | 0.44 | 0.51 | 0.448 | 1.08 | 0.77
3 | 0.91 | 0.443 | 0.554 | EKIANYKEGTF [CLRN1_Y171_YF] | 0.4 | 0.474 | 0.724 | 0.408 | 0.537 | 0.967 | 0.461 | 0.5 | 0.498 | 0.53 | 0.465 | 0.823 | 0.543
4 | 0.854 | 0.572 | 0.466 | EKLIQYCQSKG [AKR1B1_Y199] | 0.446 | 0.563 | 0.573 | 0.425 | 0.493 | 0.52 | 0.44 | 0.479 | 0.423 | 0.487 | 0.448 | 0.644 | 0.462
5 | 0.972 | 0.394 | 0.86 | EKMWSYMKSAE [GRIA3_Y705] | 0.365 | 0.4 | 0.719 | 0.398 | 0.75 | 0.939 | 0.411 | 0.467 | 0.381 | 0.511 | 0.802 | 0.949 | 0.547
6 | 0.647 | 6.12 | 0.589 | EKSREYHRLYE [PIK3R1_Y463_D464H] | 0.539 | 0.435 | 0.637 | 0.432 | 0.466 | 0.538 | 0.455 | 0.519 | 0.525 | 0.428 | 0.498 | 0.616 | 0.52
7 | 0.838 | 0.47 | 0.881 | ELPQTYCVSGP [DYSF_Y1684_G1679E] | 0.435 | 0.532 | 0.826 | 0.515 | 0.594 | 0.791 | 0.417 | 0.641 | 0.447 | 0.533 | 0.469 | 0.816 | 0.633
8 | 0.729 | 0.669 | 0.566 | ENAGFYFRISA | 0.492 | 0.73 | 1.55 | 0.674 | 0.844 | 1.32 | 0.467 | 0.492 | 0.36 | 0.587 | 0.44 | 1.42 | 1
9 | 0.788 | 0.415 | 0.976 | ENAGYYFRVSA | 0.476 | 0.665 | 1.21 | 0.456 | 0.719 | 1.26 | 0.508 | 0.322 | 0.347 | 0.568 | 0.435 | 1.26 | 0.775
10 | 0.746 | 0.414 | 0.6 | ENELTYFCFKK [CD59_Y86_C89Y_YF] | 3.63 | 0.667 | 2.43 | 0.541 | 1.29 | 1.71 | 1.06 | 4.58 | 1.16 | 0.796 | 4.33 | 1.57 | 3.38
11 | 0.841 | 0.506 | 0.558 | ENRKFYMDLKE [PURA_Y156_YF] | 0.469 | 0.691 | 0.963 | 0.487 | 0.738 | 0.917 | 0.503 | 0.375 | 0.432 | 0.492 | 0.408 | 0.989 | 0.557
12 | 0.769 | 0.482 | 0.531 | EPSLVYMVTKI [CPS1_Y768_D767V] | 1.26 | 0.534 | 1.04 | 1.7 | 0.741 | 1.16 | 0.543 | 1.45 | 0.454 | 0.575 | 0.808 | 1.16 | 0.89
13 | 0.832 | 0.457 | 0.629 | EQLQSYQVEII [KRT33A_Y268_A270V] | 0.53 | 0.529 | 0.945 | 0.597 | 0.762 | 1.14 | 0.531 | 0.575 | 0.513 | 0.67 | 0.579 | 1.21 | 0.858
14 | 0.925 | 0.682 | 0.604 | EQSGSYIWVPA [DLG1_Y895] | 0.487 | 0.615 | 1.19 | 0.514 | 5.15 | 1.86 | 8.59 | 0.511 | 3.33 | 0.892 | 0.471 | 1.16 | 0.807
15 | 0.749 | 0.466 | 0.718 | EQWRAYLEGTC [HLA-C_Y183_L180W] | 0.507 | 0.588 | 1.17 | 0.636 | 0.951 | 1.2 | 0.65 | 0.398 | 0.437 | 0.648 | 0.527 | 1.23 | 0.845
16 | 1.06 | 0.635 | 0.623 | ERCAQYKKDGA [ALDOA_Y138] | 0.396 | 0.487 | 0.622 | 0.341 | 0.484 | 0.612 | 0.438 | 0.391 | 0.368 | 0.409 | 0.394 | 0.574 | 0.496
